According to paper PMC7608815:

Key:
purified protein [1] = substrate: COC(=O)c1cccc(O)c1N; test: purified protein; assay type: biochemical, Solanum lycopersicum; details: 200 or 500 uM p-coumaroyl-CoA, 30 C, aminoacylation (amide synthesis)
purified protein [2] = substrate: CC(C)(COP(=O)(O)OP(=O)(O)OC[C@H]1O[C@@H](n2cnc3c(N)ncnc32)[C@H](O)[C@@H]1OP(=O)(O)O)[C@@H](O)C(=O)NCCC(=O)NCCSC(=O)CC(=O)O; test: purified protein; details: 200 uM p-coumaroyl-CoA, 30 C, 120 nM enzyme

B1: SlCHS (Solanum lycopersicum) (protein)
chain: MVTVEEYRKAQRAEGPATILAIGTSTPSNCVDQSTYPDYYFRITNSEHKTELKEKFKRMCDKSMIKKRYMHLTEEILKENPNMCAYMAPSLDARQDIVVVEVPKLGKRGTQKAIKEWGQPKSKITHLVFCTTSGVDMPACDYQLAKLLPVRPSVKRLMMYQQGCFAGGTVLRLAKDLAENNKGARVLVVCSEITAVTFRGPSESHLDSLVGQALFGDGAAAIIIGSDPIIGVERPLFELVSAAQTLVPDSEGAIDGHLREVGLTFHLLKDVPGLISKNIEKSLLEAFQPLGISDWNSLFWIAHPGGPAILDQVELKLGLKPEKLRATREVLSNYGNMSSACVLFILDEMRKASTKEGLGTTGEGLEWGVLFGFGPGLTVETVVLHSVAA
Purified protein [1]
  Km: 3060 µM
  kcat: 0.00603 s⁻¹
Purified protein [2]
  Km: 21.34 µM
  kcat: 0.00157 s⁻¹
